Assay results taken from patent US20230416366A1 (Hoffmann-La Roche, published 2023).

B1: CD28(SA)_variant_25 (antibody, human IgG1, kappa, L234A L235A)
heavy: not shown
light: not shown
chain: DKTHTCPPCPAPEAAGGPSVFLFPPKPKDTLMISRTPEVTCVVVDVSHEDPEVKFNWYVDGVEVHNAKTKPREEQYNSTYRVVSVLTVLHQDWLNGKEYKCKVSNKALGAPIEKTISKAKGQPREPQVCTLPPSRDELTKNQVSLSCAVKGFYPSDIAVEWESNGQPENNYKTTPPVLDSDGSFFLVSKLTVDKSRWQQGNVFSCSVMHEALHNRFTQKSLSLSP
notes: monovalent one-armed IgG-like construct (hu IgG1 PGLALA), tested from HEK supernatant without purification; also called P1AE3081
B2: CD28(SA)_variant_29 (antibody, human IgG1, kappa, L234A L235A)
heavy: not shown
light: not shown
chain: B1 chain
notes: monovalent one-armed IgG-like construct (hu IgG1 PGLALA), tested from HEK supernatant without purification; also called P1AE3085
B3: CD28(SA)_variant_27 (antibody, human IgG1, kappa, L234A L235A)
heavy: not shown
light: not shown
chain: B1 chain
notes: monovalent one-armed IgG-like construct (hu IgG1 PGLALA), tested from HEK supernatant without purification; also called P1AE3083
B4: CD28(SA)_variant_26 (antibody, human IgG1, kappa, L234A L235A)
heavy: not shown
light: not shown
chain: B1 chain
notes: monovalent one-armed IgG-like construct (hu IgG1 PGLALA), tested from HEK supernatant without purification; also called P1AE3082
B5: CD28(SA)_variant_30 (antibody, human IgG1, kappa, L234A L235A)
heavy: not shown
light: DIQMTQSPSSLSASVGDRVTITCRASQNIYVWLNWYQQKPGKAPKLLIYKASNLYSGVPSRFSGSRSGTDFTLTISSLQPEDFATYYCQQGQTYPYTFGQGTKLEIKRTVAAPSVFIFPPSDRKLKSGTASVVCLLNNFYPREAKVQWKVDNALQSGNSQESVTEQDSKDSTYSLSSTLTLSKADYEKHKVYACEVTHQGLSSPVTKSFNRGEC
chain: B1 chain
notes: monovalent one-armed IgG-like construct (hu IgG1 PGLALA), tested from HEK supernatant without purification; also called P1AE3086
B6: CD28(SA)_variant_31 (antibody, human IgG1, kappa, L234A L235A)
heavy: not shown
light: not shown
chain: B1 chain
notes: monovalent one-armed IgG-like construct (hu IgG1 PGLALA), tested from HEK supernatant without purification; also called P1AE3087

Biological target: T1, human CD28 on Jurkat reporter cells (human, UniProt P10747 19-220)
T1 construct: Endogenous CD28 of Jurkat NFAT / Jurkat IL2 reporter cells; also called hu CD28
Experiment: flow cytometry, MFI (PE) of PE-conjugated anti-human secondary, CHO cells stably overexpressing human CD28; monovalent one-armed IgG from supernatant
Experimental: Binding was assessed by flow cytometry with a FACS Fortessa (BD, Software FACS Diva). Binding curves were obtained using GraphPadPrism6.

Binding result, binds:
B1
B2
B3
B4
B5
B6
